Assay [1] has as its target GAL4 DNA binding domain fused in-frame to full-length SMAD1 (UniProt P04386). Kind of assay: cell-based or functional assay.
For assay [2], the target named is SMAD1 (wild-type, full-length R-SMAD). Kind of assay: cell-based or functional assay.

As to “constitutively active TAK1 (TAK1ca) lacking the 22 N-terminal amino acids (from UniProt Q62073 23-579) (enzyme)”, the GAL4/UAS-luciferase reporter, caALK6-receptor-mediated trans-activation of SMAD1, maximum inhibition in assay [1] stood at 40. The substance also came in with an SMAD1-SBE CAT reporter (SMAD1-mediated transcription), maximum reduction in assay [2] of 10%.
Take “dominant-negative TAK1 (TAK1dn) mutant (K63W) (from UniProt Q62073 1-579) (enzyme)”: in assay [1], the GAL4/UAS-luciferase reporter, SMAD trans-activation activity at higher amounts of TAK1dn was determined as 70% and the GAL4/UAS-luciferase reporter, SMAD trans-activation, increase at low concentrations of TAK1dn is 35%.

(Values after patent US20070197457A1.)
